Assay results reported in IntAct's records for PubMed 25888478.

B1: Protein interacting with Hsp90 1 (Saccharomyces cerevisiae), P38768 (parent)
chain: MADFLLRPIKQRHRNEDKYVSVDAADGSVSKIEPIADFVIKTKLLSANGPEKLQDGRKVFINVCHSPLVPKPEVDFNARIVFPLIIQNEWEIPIITSCYRMDHDKKGQECYVWDCCINSDCSRWICDDIQLREILVEWCLESCEIRDSVVLCRDRIAFPKMKKKGAELPALEVLNDELHQDYKAKMHKIIEEEAGDPMSILRGRNDDGDDNNDPDDGTLPPLFPIENKISGAKIEEIDKNEIAHRNLKQAPAPAPAPHEQQEDVPEYEVKMKRFKGAAYKLRILIENKAPNSKPDRFSPSYNFAENILYINGKLSIPLPRDIVVNAADIKIFHIRKERTLYIYI
partner: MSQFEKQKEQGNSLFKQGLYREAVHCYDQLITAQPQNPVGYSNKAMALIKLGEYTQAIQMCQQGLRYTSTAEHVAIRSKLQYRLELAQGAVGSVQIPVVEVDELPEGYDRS

Variants of: B1
Conditions: with tah1_yeast TAH1, P25638

| effect of a mutation on the interaction | Variant |
| --- | --- |
| disrupting interaction | N306S |
